Measured values from patent US20250101098A1.

Tests used:
Experiment in all cases: flow cytometry, HEK 293 cells overexpressing the target
[1] = target: cynomolgus monkey nectin-4 protein expressed on the surface of HEK 293 cells (cynomolgus monkey)
[2] = target: human nectin-4 protein expressed on the surface of cells (human) (UniProt Q96NY8)
[3] = target: mouse nectin-4 protein expressed on the surface of HEK 293 cells (mouse) (UniProt Q8R007)
[4] = target: rat nectin-4 protein expressed on the surface of HEK 293 cells (rat) (UniProt D3ZET1)

human nectin-4 protein expressed on the surface of cells (human), sequence (Q96NY8 32-510 limits assumed): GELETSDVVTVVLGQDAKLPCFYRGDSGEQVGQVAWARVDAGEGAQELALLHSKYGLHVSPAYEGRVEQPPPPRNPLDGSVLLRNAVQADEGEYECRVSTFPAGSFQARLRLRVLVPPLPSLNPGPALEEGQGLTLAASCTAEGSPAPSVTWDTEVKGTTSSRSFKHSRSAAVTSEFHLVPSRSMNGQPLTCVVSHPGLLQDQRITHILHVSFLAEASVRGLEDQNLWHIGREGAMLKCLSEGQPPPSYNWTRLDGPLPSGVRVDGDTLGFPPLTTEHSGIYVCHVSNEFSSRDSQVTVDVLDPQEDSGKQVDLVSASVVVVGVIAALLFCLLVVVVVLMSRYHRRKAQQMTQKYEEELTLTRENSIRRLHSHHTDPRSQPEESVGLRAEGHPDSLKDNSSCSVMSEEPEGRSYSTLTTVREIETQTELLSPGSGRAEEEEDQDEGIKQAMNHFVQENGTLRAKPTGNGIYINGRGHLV
mouse nectin-4 protein expressed on the surface of HEK 293 cells (mouse), sequence (Q8R007 31-508): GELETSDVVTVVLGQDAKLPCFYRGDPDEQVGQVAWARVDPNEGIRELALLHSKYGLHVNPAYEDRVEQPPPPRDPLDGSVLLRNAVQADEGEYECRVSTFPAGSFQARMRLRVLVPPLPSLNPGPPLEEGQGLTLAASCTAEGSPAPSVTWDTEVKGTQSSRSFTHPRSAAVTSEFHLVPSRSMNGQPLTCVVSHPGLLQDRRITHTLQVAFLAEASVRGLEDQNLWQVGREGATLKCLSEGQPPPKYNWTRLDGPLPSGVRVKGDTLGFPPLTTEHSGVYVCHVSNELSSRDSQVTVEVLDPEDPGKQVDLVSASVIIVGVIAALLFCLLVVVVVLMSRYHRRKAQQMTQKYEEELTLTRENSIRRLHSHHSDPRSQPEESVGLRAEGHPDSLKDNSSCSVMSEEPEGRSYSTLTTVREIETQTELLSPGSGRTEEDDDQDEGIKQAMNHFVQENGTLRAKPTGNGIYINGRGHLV

Anti-FITC Isotype Control (antibody)
Flow data [1]: 189
Flow data [2]: 132
Flow data [3]: 163
Flow data [4]: 196
